Among the data in the supplement of paper PMC9233669 are self-aminoacylation values, retold here.

Variants at the floor of the assay were thinned out.

One series concerns biotinyl-Phe-oxazolone. The series is described as follows: self-aminoacylation, catalytic enhancement (BFO) (fold over background); higher = more active; k-Seq, kA / k0A0; sequences stand for … in GGGAAUGGAUCCACAUCUACGAAUUC…UUCACUGCAGACUUGACGAAGCUG
The method in brief:
(§1)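 Working in 50 μL HEPES/NaCl/KCl/MgCl2/CaCl2 buffer with 5% acetonitrile at pH 6.9–7.0, mutagenized RNA pools (0.43 μM; 21-nt variable region) were reacted with 2–1250 μM of each biotinyl-aminoacyl-oxazolone for 90 minutes at room temperature. Streptavidin capture followed, with quantification by triplicate qPCR and Illumina sequencing. Catalytic enhancement is reported as median kA over the uncatalyzed rate, the low-activity peak of a bimodal Gaussian fit to the data.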

The test system of the next series is biotinyl-Trp-oxazolone. Briefly: self-aminoacylation, catalytic enhancement (BWO) (fold over background); higher = more active; k-Seq, kA / k0A0; sequences stand for … in GGGAAUGGAUCCACAUCUACGAAUUC…UUCACUGCAGACUUGACGAAGCUG
The method in brief: as §1

In another series the test system is biotinyl-Met-oxazolone. The series is described as follows: self-aminoacylation, catalytic enhancement (BMO) (fold over background); higher = more active; k-Seq, kA / k0A0; sequences stand for … in GGGAAUGGAUCCACAUCUACGAAUUC…UUCACUGCAGACUUGACGAAGCUG
In short, it runs like this:
as §1

The next series concerns biotinyl-Ile-oxazolone. Briefly: self-aminoacylation, catalytic enhancement (BIO) (fold over background); higher = more active; k-Seq, kA / k0A0; sequences stand for … in GGGAAUGGAUCCACAUCUACGAAUUC…UUCACUGCAGACUUGACGAAGCUG
The method in brief: as §1

The test system of another series is biotinyl-Leu-oxazolone. The series is described as follows: self-aminoacylation, catalytic enhancement (BLO) (fold over background); higher = more active; k-Seq, kA / k0A0; sequences stand for … in GGGAAUGGAUCCACAUCUACGAAUUC…UUCACUGCAGACUUGACGAAGCUG
The method in brief:
as §1

Another series relates to biotinyl-Val-oxazolone. The series is described as follows: self-aminoacylation, catalytic enhancement (BVO) (fold over background); higher = more active; k-Seq, kA / k0A0; sequences stand for … in GGGAAUGGAUCCACAUCUACGAAUUC…UUCACUGCAGACUUGACGAAGCUG
The method in brief: as §1

Turning to “AUUACCCUGGGCAUCUAGUGA [Fam2.1 aminoacylation ribozyme variant]”, the self-aminoacylation in the series on biotinyl-Phe-oxazolone was found to be 44.6; in the series on biotinyl-Trp-oxazolone, 7.33; in the series with biotinyl-Met-oxazolone it was 6.2; in the series with biotinyl-Ile-oxazolone it was 3; with biotinyl-Leu-oxazolone it was 7.13; with biotinyl-Val-oxazolone, 3.38.
As for “AUUACCCUGGUUAUAGAGUGA [Fam2.1 aminoacylation ribozyme variant]”, the self-aminoacylation in the series with biotinyl-Phe-oxazolone is 117; in the series with biotinyl-Trp-oxazolone, 19.1; in the series with biotinyl-Met-oxazolone it was 16.7; with biotinyl-Ile-oxazolone it was 6.6; in the series with biotinyl-Leu-oxazolone, 16; with biotinyl-Val-oxazolone it was 6.47.
Regarding “CCACACUUCAAGGAAUCGGGC [Fam1B.1 aminoacylation ribozyme variant]”, the self-aminoacylation was determined as 1.44 with biotinyl-Phe-oxazolone; 3.41 with biotinyl-Trp-oxazolone; 3.01 with biotinyl-Met-oxazolone; 2.98 with biotinyl-Ile-oxazolone; 2.86 with biotinyl-Leu-oxazolone; 2.85 in the series with biotinyl-Val-oxazolone.
“ACUCACCUAGGUCAUCGGGUU [Fam2.2 aminoacylation ribozyme variant]”: the self-aminoacylation in the series with biotinyl-Phe-oxazolone was found to be 31.3; in the series on biotinyl-Trp-oxazolone it was 6.68; with biotinyl-Met-oxazolone, 8.19; in the series with biotinyl-Ile-oxazolone it was 5.92; with biotinyl-Leu-oxazolone, 11.3; in the series on biotinyl-Val-oxazolone, 5.06.
With “CUACUGCAAACAAUCGGUCUG [Fam1A.1 aminoacylation ribozyme variant]”, the self-aminoacylation in the series with biotinyl-Phe-oxazolone was determined as 1.08; with biotinyl-Trp-oxazolone, 0.77; in the series on biotinyl-Met-oxazolone, 0.769; in the series on biotinyl-Ile-oxazolone, 0.804; in the series on biotinyl-Leu-oxazolone, 0.776; with biotinyl-Val-oxazolone, 0.844.
As for “AAGUUUGCUAAUCGUCACAAG [Fam3.1 aminoacylation ribozyme variant]”, the self-aminoacylation was found to be 1.3 with biotinyl-Phe-oxazolone; 0.982 in the series with biotinyl-Trp-oxazolone; 0.828 in the series with biotinyl-Met-oxazolone; 0.966 in the series on biotinyl-Ile-oxazolone; 0.881 in the series on biotinyl-Leu-oxazolone; 0.978 in the series with biotinyl-Val-oxazolone.
Regarding “CCACACUUCAAGCAAUCGUCC [Fam1B.1 aminoacylation ribozyme variant]”, the self-aminoacylation with biotinyl-Phe-oxazolone stood at 1.57; with biotinyl-Trp-oxazolone, 1.06; in the series with biotinyl-Met-oxazolone it was 0.412; in the series with biotinyl-Ile-oxazolone, 0.54; with biotinyl-Leu-oxazolone, 0.518; with biotinyl-Val-oxazolone it was 0.652.
On to “AGAUUUGCUAAUAGUCGCAAG [Fam3.1 aminoacylation ribozyme variant]”, for which the self-aminoacylation is 2.47 with biotinyl-Phe-oxazolone; 1.88 with biotinyl-Trp-oxazolone; 1.58 in the series on biotinyl-Met-oxazolone; 1.91 in the series on biotinyl-Ile-oxazolone; 2.39 in the series on biotinyl-Leu-oxazolone; 1.8 in the series on biotinyl-Val-oxazolone.
As to “GCACACUUCAAGAAAUCGGUC [Fam1B.1 aminoacylation ribozyme variant]”, the self-aminoacylation amounted to 7.74 in the series on biotinyl-Phe-oxazolone; 8.15 in the series with biotinyl-Trp-oxazolone; 1.87 in the series with biotinyl-Met-oxazolone; 1.97 in the series on biotinyl-Ile-oxazolone; 2.21 with biotinyl-Leu-oxazolone; 1.59 with biotinyl-Val-oxazolone.
On to “AUUACCCUGGGCAUCGAGUGA [Fam2.1 aminoacylation ribozyme variant]”, for which the self-aminoacylation worked out at 21.4 in the series with biotinyl-Phe-oxazolone; 5.82 in the series with biotinyl-Trp-oxazolone; 4.85 in the series on biotinyl-Met-oxazolone; 2.57 with biotinyl-Ile-oxazolone; 5.1 with biotinyl-Leu-oxazolone; 2.75 with biotinyl-Val-oxazolone.
Take “AAGUUUACUCAUAGUCGCAAG [Fam3.1 aminoacylation ribozyme variant]”: the self-aminoacylation in the series with biotinyl-Phe-oxazolone was 2.83; in the series with biotinyl-Trp-oxazolone, 1.88; with biotinyl-Met-oxazolone, 1.58; with biotinyl-Ile-oxazolone, 1.65; in the series on biotinyl-Leu-oxazolone, 1.8; in the series on biotinyl-Val-oxazolone, 1.43.
Turning to “AUUCAACGAGGUCAUCGGGUG [Fam2.2 aminoacylation ribozyme variant]”, the self-aminoacylation came to 54.8 in the series on biotinyl-Phe-oxazolone; 6.07 with biotinyl-Trp-oxazolone; 7.46 in the series with biotinyl-Met-oxazolone; 3.97 in the series on biotinyl-Ile-oxazolone; 9.27 with biotinyl-Leu-oxazolone; 5.11 in the series on biotinyl-Val-oxazolone.
Turning to “CUCCUUCAAACAAUGGGUCUG [Fam1A.1 aminoacylation ribozyme variant]”, the self-aminoacylation in the series on biotinyl-Phe-oxazolone came out at 0.816; in the series on biotinyl-Trp-oxazolone, 0.877; with biotinyl-Met-oxazolone it was 0.901; in the series on biotinyl-Ile-oxazolone it was 0.855; in the series with biotinyl-Leu-oxazolone, 1.05; in the series with biotinyl-Val-oxazolone, 0.982.
For the sequence “AGGUUUGCCAAUAGUCGCAAG [Fam3.1 aminoacylation ribozyme variant]”, the self-aminoacylation with biotinyl-Phe-oxazolone came to 9.52; with biotinyl-Trp-oxazolone, 3.7; in the series with biotinyl-Met-oxazolone, 2.31; in the series with biotinyl-Ile-oxazolone, 2.1; in the series with biotinyl-Leu-oxazolone, 2.31.
Consider “CUACUUCAAACAAUCAGUCCG [Fam1A.1 aminoacylation ribozyme variant]”, for which the self-aminoacylation in the series with biotinyl-Phe-oxazolone stood at 10.8; in the series with biotinyl-Trp-oxazolone, 4.05; with biotinyl-Met-oxazolone, 0.753; with biotinyl-Ile-oxazolone, 0.632; in the series with biotinyl-Leu-oxazolone, 0.623; in the series with biotinyl-Val-oxazolone it was 0.783.
With “CCACACUUCAAGCAGUCGGGC [Fam1B.1 aminoacylation ribozyme variant]”, the self-aminoacylation came out at 2.5 in the series on biotinyl-Met-oxazolone, 2.15 with biotinyl-Ile-oxazolone, 2.19 in the series on biotinyl-Leu-oxazolone and 2.36 in the series with biotinyl-Val-oxazolone.
As for “AAGUUUGUUAACAGUCGCAAG [Fam3.1 aminoacylation ribozyme variant]”, the self-aminoacylation is 1.11 in the series with biotinyl-Phe-oxazolone; 0.988 in the series with biotinyl-Trp-oxazolone; 0.806 with biotinyl-Met-oxazolone; 1.09 in the series with biotinyl-Ile-oxazolone; 1.03 with biotinyl-Leu-oxazolone; 0.996 with biotinyl-Val-oxazolone.
Turning to “CCACGCUUCAAGCACUCGGUC [Fam1B.1 aminoacylation ribozyme variant]”, the self-aminoacylation in the series with biotinyl-Phe-oxazolone turned out to be 0.769; with biotinyl-Trp-oxazolone, 0.81; in the series with biotinyl-Met-oxazolone, 0.938; in the series on biotinyl-Ile-oxazolone it was 0.855; in the series with biotinyl-Leu-oxazolone it was 0.819; with biotinyl-Val-oxazolone, 1.29.
In the case of “AUUCACCUUGGUCAUCGGGUC [Fam2.2 aminoacylation ribozyme variant]”, the self-aminoacylation with biotinyl-Phe-oxazolone came out at 4.87; with biotinyl-Trp-oxazolone, 1.28; with biotinyl-Met-oxazolone, 1.32; in the series on biotinyl-Ile-oxazolone, 1.2; in the series on biotinyl-Leu-oxazolone, 1.15; in the series on biotinyl-Val-oxazolone it was 1.58.
Turning to “CCAGUUCAAACAAUCGGUCUG [Fam1A.1 aminoacylation ribozyme variant]”, the self-aminoacylation turned out to be 14.2 in the series on biotinyl-Phe-oxazolone; 10.7 with biotinyl-Trp-oxazolone; 1.34 with biotinyl-Met-oxazolone; 1.41 with biotinyl-Ile-oxazolone; 1.5 in the series with biotinyl-Leu-oxazolone; 1.39 in the series on biotinyl-Val-oxazolone.
For the sequence “AAGUAUGCUAAUAGUCGCAAC [Fam3.1 aminoacylation ribozyme variant]”, the self-aminoacylation in the series on biotinyl-Phe-oxazolone came out at 2.19; in the series on biotinyl-Trp-oxazolone, 1.23; in the series on biotinyl-Met-oxazolone, 1.2; with biotinyl-Ile-oxazolone it was 1.22; with biotinyl-Leu-oxazolone it was 1.28; in the series with biotinyl-Val-oxazolone, 0.942.
Take “CCACUCUUCAAGCAAUUGGUC [Fam1B.1 aminoacylation ribozyme variant]”: the self-aminoacylation in the series on biotinyl-Phe-oxazolone turned out to be 0.992; in the series with biotinyl-Trp-oxazolone, 0.809; in the series with biotinyl-Met-oxazolone, 0.63; in the series with biotinyl-Ile-oxazolone, 0.831; in the series on biotinyl-Leu-oxazolone, 0.729; in the series on biotinyl-Val-oxazolone it was 0.95.
On to “ACGUUUGCUAUUAGUCGCAAG [Fam3.1 aminoacylation ribozyme variant]”, for which the self-aminoacylation in the series on biotinyl-Phe-oxazolone was found to be 1.31; in the series with biotinyl-Trp-oxazolone, 2.22; in the series with biotinyl-Met-oxazolone, 1.67; with biotinyl-Ile-oxazolone, 1.5; in the series with biotinyl-Leu-oxazolone, 1.18; with biotinyl-Val-oxazolone, 1.21.
